From patent US20230250135A1

Molecular target: trimeric stem polypeptides with H7 like residues at the beta2/beta3 loop, A-helix and lower part of the stem (FIG. 13A)
Assay: Binding-AlphaLISA, Expi293F supernatant, normalized to UFV172561

Sequence of CR9114 (antibody) (VH): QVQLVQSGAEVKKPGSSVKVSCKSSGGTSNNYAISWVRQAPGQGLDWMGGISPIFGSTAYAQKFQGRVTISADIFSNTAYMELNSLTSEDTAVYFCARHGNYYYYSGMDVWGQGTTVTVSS
Sequence of CR9114 (antibody) (VL): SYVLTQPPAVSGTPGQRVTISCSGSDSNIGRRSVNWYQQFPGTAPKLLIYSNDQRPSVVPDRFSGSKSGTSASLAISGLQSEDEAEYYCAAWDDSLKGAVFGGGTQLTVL

CR9114 (antibody)
variation in antibody binding relative to reference UFV172561: 20%
